Data as given in the DeepSol protein solubility set.

Assay: soluble on expression in E. coli; label from the status in PepcDB or PDB records

Row | Sequence | soluble on expression in E. coli
1 | MGSDKIHHHHHHMSKILNTQLIGIFNRLEKQSLEIQMAAQCLIQAIGGEGYVYVKGYDDLQFFESFILHSDERLKSSRKLDAIKDFKEIDSTDRVLLFAPFYNDQVALDIQKLIDLDIDVVLISNKPKTDDFPDHLVHFIDLSTPRPIVYTEDYDKIVQPHAIALNYVYYDIYTQMIEMTRDLEL | not soluble
2 | MGSDKIHHHHHHMKILICDDDSSITQSLSLIIKTYFNKKKVNNLDIVTFNDGDSLLSDKSQKDIIFLDIEMPGFDGIYVGNELKKQNDSVIIFIVTSYLEYLDAAMRFHVFRYLSKPIDKQRLFQNLDDALELYYSINQKIAVETKYGVTSVLTCDIVYVEAKGRKVIVHTATADLDSTQTLQFWIEHLPQATFFQSHRSYIVNMAMVTSFDHELIYLCDGQFTAYLTRRKFTEFKRAYLMFMESKR | not soluble
3 | MGHHHHHHSHMAASRNGFEAVEAEGSAGCRGSSGMEVVLPLDPAVPAPLCPHGPTLLFVKVTQGKEETRRFYACSACRDRKDCNFFQWEDEKLSGARLAAREAHNRRCQPPLSRTQCVERYLKFIELPLTQRKFCQTCQQLLLPDDWGQHSEHQVLGNVSITQLRRPSQLLYPLENKKTNAQYLFADRSCQFLVDLLSALGFRRVLCVGTPRLHELIKLTASGDKKSNIKSLLLDIDFRYSQFYMEDSFCHYNMFNHHFFDGKTALEVCRAFLQEDKGEGIIMVTDPPFGGLVEPLAITFKKLIAMWKEGQSQDDSHKELPIFWIFPYFFESRICQFFPSFQMLDYQVDYDNHALYKHGKTGRKQSPVRIFTNIPPNKIILPTEEGYRFCSPCQRYVSLENQHCELCNSCTSKDGRKWNHCFLCKKCVKPSWIHCSICNHCAVPDHSCEGPKHGCFICGELDHKRSTCP | soluble
4 | MSVDETITFSLAVKNTGNREGQEIVQLYIRDIKSSLPRPVKELKRFKKVNLMPGEEKIVSLSIDKEALSFFDAERHEWICEPGKFEAIIAASAMDIKDVLKFELKLEHHHHHH | not soluble
5 | MASTTQNTPTKDLAEISERFEKLRARSSNNMATFNTTSSYNRTYEKKVIEEGSPNVRVTTQTHTAIPGMPDLGNIHSSMLSNFPNLAISSPSVVGSQNGNLTSIRVTNTSFHAILDVSKYDADSLKVTVVDNNIIVEGSHGEKEDTYGTIESTFKRRFPLPKAVAPESVQSQLTADGHLTIDAKAPEPKQEGARPIQIKVINTSAEQQKQ | not soluble
6 | GPHMASAEEKLEKKLELDPNCKEPLQVLPPTVVDQIRLWQLELDRVITYEGSLYSDFETSQEYNLLSKYAQDIGVLLWKDDKKKKFFISKEGNSQVLDFAKRKLKKKQ | soluble
7 | MNNTDPTSFESILAGVAKLRKEKSGADTTGSQSLEIDASKLQQQEPQTSRRINSNQVINAFNQQKPEEWTDSKATDDYNRKRPFRSTRPGKTVLVNTTQKENPLLNHLKSTNWRYVSSTGINMIYYDYLVRGRSVLFLTLTYHKLYVDYISRRMQPLSRNENNILIFIVDDNNSEDTLNDITKLCMFNGFTLLLAFNFEQAAKYIEYLNL | soluble
8 | SLAKYLELSMGFEEVAYRGLETNSRRLASHVVRNGNILFEIINTLESVAEHYPTVPMSKEEALSIKLDYSADEAHILKSLKEKIIKLTAEIVDENLDRYKYAMDIKAAKENLERSIINSTNFTAAISTIRKSINECVETSKKAIQDNFESFLIQEFVKIHGEGVMDISFNVLDVDSAFQKAIESGAYIIKLPQTMSDVHGSVKLATIAVPYTDIHHTLIQNKDYSGPFLPNYTKSIIEKPETYMHQLESLPPIRLDCIDHCVENYSWNQMMEHARFYANIFGFHKYWSVDEKDVFTGETALKSIVMASSNGKVKMPINEPAKGRKKSQIEEFYDFNGGPGVQHIALKTNDIIATVTSLRKRGIEFNPASQKYYDTLKQRLINDDIILKEDFNSIQNLNILVDYDPETRNNASKTCNYILQIFTKPLHDRPTLFIEIIQRRHHNGFGKGTFKGLFETIEAQQKLRGTLVSSDEG | not soluble
9 | AKLGAVYTEGGFVEGVNKKLGLLGDSVDIFKGIPFAAPTKALENPQPHPGWQGTLKAKNFKKRCLQATITQDSTYGDEDCLYLNIWVPQGRKQVSRDLPVMIWIYGGAFLMGSGHGANFLNNYLYDGEEIATRGNVIVVTFNYRVGPLGFLSTGDANLPGNYGLRDQHMAIAWVKRNIAAFGGDPDNITLFGESAGGASVSLQTLSPYNKGLIRRAISQSGVALSPWVIQKNPLFWAKKVAEKVGCPVGDAARMAQCLKVTDPRALTLAYKVPLAGLEYPMLHYVGFVPVIDGDFIPDDPINLYANAADIDYIAGTNNMDGHIFASIDMPAINKGNKKVTEEDFYKLVSEFTITKGLRGAKTTFDVYTESWAQDPSQENKKKTVVDFETDVLFLVPTEIALAQHRANAKSAKTYAYLFSHPSRMPVYPKWVGADHADDIQYVFGKPFATPTGYRPQDRTVSKAMIAYWTNFAKTGDPNMGDSAVPTHWEPYTTENSGYLEITKKMGSSSMKRSLRTNFLRYWTLTYLALPTVT | soluble
10 | MAHHHHHHMGTLEAQTQGPGSMKNYRIESDSFGEIQIEEKFYWGAQTQRSLNNFKISKQKMPKILIRALAILKKCAAQVNYEFGDLEYKIATSIDKAIDRILAGEFEDNFPLVVWQTGSGTQTNMNMNEVIASIANEELTGKKGGKFPVHPNDHVNKGQSSNDSFPTAMHIATVLATKQQLIPALNNLLTYLQDKSKDWDKIIKIGRTHLQDATPLTLKQEFSGYITQIEYALERIEDALKKVYLLAQGGTAVGTGINSKIGFDIKFAQKVAEFTQQPFKTAPNKFESLAAHDALVEFSGTLNTIAVSLMKIANDIRLLGSGPRCGLGELHLPENEPGSSIMPGKVNPTQVEALTMVCTQVMGNHVTVTIAGSNGHLELNVFKPVIIYNILQSIELLSDSVNSFVTHCVKGLEPNIARINTLRDKSLMLVTVLNPHIGYDNAAKIAKEAHKYGITLKEAAKKLNFLSEEEFDKIVVPEKMIS | soluble
11 | MGSDKIHHHHHHMNTNDTELLRLFETLTTEQKIDIARHLLQNKDIKSTTVIATEEDKAISFAQPYVFAFTSNFRVFSDLDISKNEFRVLTYILEYMEFGNLINLSQSSLCKALNIASGNMSNIFKKLKQKGILVEHHGHLYINSNIFAKGLSHQLDEKRKEHLSNARSLHAELEQYPENYTDYSKQERRNLALETETKEIYTDAFIFSKKKKNNAVPNAKNSIKIDKPRKVYKRTKENEAARKDLADAKNHLKAVS | not soluble
12 | MEGQTHDAQNNVPEHDNPLMNVKNPSSNLFSKKDAQCLSVLCNGKWLQIVRSSPKVSCEASTCPSHILTKVGENYVAESEKMHKKVISFSSKTFSQGTLQFTMRANGTPHFVFKLENQKDVYVASLSSNVQDQNSYMIHLQRGESSASSSHLVGRINVSTLFSEKVLEREFVLFSSNGENLKIPRTRKNRGLSKKVVHAVKNERRTARLSRTSFIPDLGSWDEQFQAQNYDCLLKNKLPTNLETLAVVVKQETIEDEIGGWGLKFLKRSPMFQRSNDASETETSTSSISMNVVIPSGIHGGPEDGPSSLIERWKSQGNCDCGGWDLCCSLTLLKGQPRKDQYFELFIEVKLSFISSNTSIL | not soluble
13 | MAGVAEFNDKGELLLPKNYREWVMVGTQVTPNELNDGKAPFTEIRTVYVDPESYAHWKKTGEFRDGTVTVKELVSVGDRKGPGSGNGYFMGDYIGLEASVKDSQRFANEPGNWAFYIFYVPDTPLVAAAKNLPTAECAACHKENAKTDMVFTQFYPVLRAAKATGESGVVAPKKLAAALEHHHHHH | soluble
14 | MNGNGENGTDEKQKLLSVVGVVSEEVVEMNRVSSARFQVSKTDEDEKTSDDNLRKLKSGSEPPPPTQNHEAVTLVTRKMSATGRFMVTSDTNPGQLVAEVADELGIDVPIDPPAEKSPASRAKGVHFSVGDKDSGSMSEDGDEKRNITHENQTTFNMKSWRNMKTIEHPPIIDFYRNSIDTDGVFNRPSMAQLIHGKEHKEQDLGFEELNKKPETAQLAKVIGLNLLSKEDQERRDFERKKRINQQKLQEMHKMHKETYNFR | not soluble
15 | QCTGGADCTSCTGACTGCGNCPNAVTCTNSQHCVKANTCTGSTDCNTAQTCTNSKDCFEANTCTDSTNCYKATACTNSSGCPGH | soluble
16 | MRITSTANPRIKELARLLERKHRDSQRRFLIEGAREIERALQAGIELEQALVWEGGLNPEEQQVYAALGRVGRLALLEVSEAVLKKLSVRDNPAGLIALARMPERTLEEYRPSPDALILVAVGLEKPGNLGAVLRSADAAGAEAVLVAGGVDLYSPQVIRNSTGVVFSLRTLAASESEVLDWIKQHNLPLVATTPHAEALYWEANLRPPVAIAVGPEHEGLRAAWLEAAQTQVRIPMQGQADSLNVSVSAALLLYEALRQRLLRDRLTKTHSTL | soluble
17 | MSLASTEEETQAVMKVYSKEDYSVVNRFESHGGGWGYSAHSVEAIRFSADTDILLGGLGLFGGRGEYTAKIKLFELGPDGGDHETDGDLLAETDVLAYDCAAREKYAMMFDEPVLLQAGWWYVAWARVSGPSSDCGSHGQASITTDDGVIFQFKSSKKSNNGTDVNAGQIPQLLYRLPTSDGSTSKGKQQTSEPVHILKRSFARTVSVECFESLLSILHWSWTTLVLGVEELRGLKGFQFTATLLDLERLRFVGTCCLRLLRVYTCEIYPVSATGKAVVEETSKLAECIGKTRTLLRKILSEGVDHCMVKLDNDPQGYLSQPLRLLEAVLQECHNTFTACFHSFYPTPALQWACLCDLLNCLDQEANFKTSSSRLLAAVMSALCHTSVKLTSLFPIAYDGEVLLRSIVKQVSTENDSTLVHRFPLLVGHMEKLSQSEENISGMTSFREVLEKMLVIVVLPVRNSLRRESELFSSHLVSNTCGLLASIVSELTASALGSEVDGLNSLHSVKASANRFTKTSQGRSWNTGNGSPDAICFAVDKPGIVVVGFAVYGGGGIHEYELEVLVDDSEHAGDSTHSHRWTSLELVKGTYTTDDSPSDIAEIRLDKVVPLKENVKYAVRLRNYGSRTANGDGGMTTVQCPDGVTFTFSTCSLSSNGTNQTRGQIPQILYYRSEEGHHHHHH | soluble
18 | MQARQPTVAPFDTAKLDRLMEEAGIDVIAATSKHNTQYLMGGYKFIFFAAMDAIGHSRYLPMVIYEKGAPDHSAYVGNRMEGAEHQNNPFWTPAVHTATWGTQDAAGLAVEHLKKIGKASGRIGIEPAFLPSDARDLLASRLDGARFVDATHVLERLRAVKTADELAKLRRASELITDSMLATIAAARAGSTKLEIIEQLRREETNRGLHFEYCLLTLGASHNRAGSPQAWAEGEILSIDSGGNYHGYIGDLCRMGVLGEPDAELEDLLAEVERIQQAAFAKVRAGVLGSEMIVAAEAELKASPSAAFTDFFCHGMGLITHEAPFLMTNHPVAYEGIDADKPLEAGNVISVETTMLHPKRGFIKLEDTLAITDKGYEMFGDRGRGWNRGGVLEHHHHHH | not soluble
19 | MVQDQIRYDILVQDALRGVIRKVLSEVAKAGLPGSHHFFITFLTNAPGVKISTRLKSRYPEQMTIVLQHQFRDLNVSETAFEVTLSFREVSEKLVIPFHSIQVFYDPVAAFEAAFDLPSNLNSKEGENLENIASTPVILSDTQKKEKKFPKEQISKTNKDSSNNDTKQSADVVSLDSFRKKLEHHHHHH | soluble
20 | MSLAPRFTVTYFVRAADEAEAKARALDIALEQTVEIPRNVVPKGYVEDEILGRLESLLQDPEGRPGFLAAISYSEDDIGGDFLQFLNIVFGNSSIKPGIKVEDIGLSPGLLDLCKGPRHGIVGLRARAGIGEKPLLMSAIKPAGLSTTELARLAYDFALGGMHFVKDDHGLVDQKTAPFEERLKACIEAVGEANAKSGGRTSFVPNITGPATAIIERAKQAQEYGAGGVMIAPALAGYDIVRTLAADPDFSLPIVSHPAFSGANVVSPDCGFTHRAFFGTLHRLMGADAVVYPNFGGRFGFTREECQSIAKTCSVDMGGPKAIVAAPGGGMTFARIPEMREAYGNDIMYLVGGALLSEPDLVSACKRLVAATEEGHHHHHH | soluble
